Measurements taken from patent US8492329B2, “Bioactive peptides and methods of using same” (Compugen Ltd., priority 2007, dated 2013).
“Also recorded” adds a separate entry of the source. No end group written: not given here.

Assays:
[1] = biological target: T1, LGR7 (RXFP1) (Homo sapiens, UniProt Q9HBX9); assay: ACEA RT-CES cell impedance, LGR7 transfected CHO-K1 cells; assay type: cell-based; parameters: expressed in transfected cells; host or cells: CHO-K1 (transient); settings: for dose response of normalized cell index: end point of the experiment, FIG. 16-19; for affinity to LGR7 compared with other ligands: from cell impedance dose response; for effect on cell impedance (normalized cell index): P74C13V 10 uM, H2 Relaxin 1 uM, FIG. 13
T1 sequence (Q9HBX9 1-757): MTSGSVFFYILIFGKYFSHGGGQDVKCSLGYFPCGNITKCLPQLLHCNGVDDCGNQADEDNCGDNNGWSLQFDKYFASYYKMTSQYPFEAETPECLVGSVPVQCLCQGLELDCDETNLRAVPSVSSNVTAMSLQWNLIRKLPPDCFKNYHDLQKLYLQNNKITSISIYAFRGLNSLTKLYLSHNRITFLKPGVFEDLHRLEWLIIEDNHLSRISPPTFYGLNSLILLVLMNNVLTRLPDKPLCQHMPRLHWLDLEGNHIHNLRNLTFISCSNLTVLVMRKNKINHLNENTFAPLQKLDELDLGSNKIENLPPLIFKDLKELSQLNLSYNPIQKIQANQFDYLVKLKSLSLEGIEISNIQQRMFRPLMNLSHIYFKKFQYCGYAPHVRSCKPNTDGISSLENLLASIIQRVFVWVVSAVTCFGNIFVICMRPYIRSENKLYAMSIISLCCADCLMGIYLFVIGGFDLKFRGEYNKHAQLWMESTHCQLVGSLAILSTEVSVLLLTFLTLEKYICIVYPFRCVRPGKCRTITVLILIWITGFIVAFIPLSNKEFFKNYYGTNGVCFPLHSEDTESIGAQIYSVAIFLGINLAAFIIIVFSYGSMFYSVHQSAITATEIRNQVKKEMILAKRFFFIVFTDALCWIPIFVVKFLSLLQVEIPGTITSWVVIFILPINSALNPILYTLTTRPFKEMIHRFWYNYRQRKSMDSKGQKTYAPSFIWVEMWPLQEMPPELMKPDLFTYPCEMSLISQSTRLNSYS
Description: ACEA RT-CES screen is a noninvasive and label-free assay for GPCRs that can be used with both engineered and nonengineered cell lines. The assay is based on using cell-electrode impedance to measure minute changes in cellular morphology as a result of ligand-dependent GPCR activation and is described in Naichen Yu, et al., Anal. Chem., 78 (1), 35-43, 2006. 10.1021/ac051695v S0003-2700(05)01695-1. The Rho family of small GTPases, which include Rho, Rac, and CDC42, are well-characterized effectors of oncogenes, growth factor and adhesion-mediated signaling pathways and are not classically thought of as being key effectors for GPCRs. Rho family GTPases participate in a number of cellular processes, the main one being regulation and maintenance of specific structures within the actin cytoskeleton framework. […] The current view of the actin cytoskeleton is that of a dynamic and plastic system that is a reflection and manifestation of the intracellular signaling and not simply a static structure designed to maintain cellular architecture. Since GPCRs couple to the actin cytoskeletal network and induce very defined morphological changes, it is possible to harness this information as a functional and biologically relevant readout for GPCRs.
ACEA biosciences; has designed electronic cell sensor arrays embedded in the bottom of the well of microtiter plates that are capable of measuring minute changes in cell morphology. The electronic sensors measure changes in cell-substrate impedance as a result of the disruption of the ionic environment due to the presence of cell and cell morphology dynamics. The main advantages offered by using cell-substrate impedance and cell morphology as a readout are that both exogenously expressed and endogenous receptors can be assayed without the need for engineering the cell with promiscuous G proteins and reporters or labeling the cells with dyes. In addition, since the readout is noninvasive, multiple stimulations with the same ligand or different ligands can be performed to assess events such as desensitization and receptor cross-talk. Finally, another major aspect of using cell-substrate impedance and cell morphology as a readout is that potentially all GPCRs, regardless of the signaling pathways, can be functionally monitored.
Peptides were synthesized by the solid phase peptide synthesis (SPPS) method, cleaved from the resin, and purified by RP-HPLC unless stated otherwise. The peptide's identity was verified by mass spectrometry. Final purity of peptide was >90% as measured by RP-HPLC. Peptides were diluted in Water (DDW—high purity) containing 0.1% BSA. In some cases peptides were dissolved in Tris-HCl buffer (pH8.2). In other cases either the addition of 1% DMSO or a brief sonication was required. All plates were stored at −80 C until use.
Cells: CHOk1 cell-line (ATCC CCL-61). Cells were maintained and propagated in F-12 HAM nutrient mix (Gibco. Cat# 21765-029) supplemented with 10% HI-FBS (Biological Ind. Cat#04-121-1), 2.5 mL of 200 mm L-Glutamine in Saline Solution (Biological Ind. Cat#03-020-1), 5 mL of Penicillin-Streptomycin Solution 10000/mL Penicillin G & 10 mg/mL Streptomycin Sulfate (Biological Ind. Cat#03-031-1).
One day before the transfection 2×10^6 CHO-k1 cells were plated in T75 flask containing 10 mL of complete growth medium. On the transfection date, FUGENE6 transfection reagent was warmed to ambient temperature by 15 minutes incubation at room temperature and mixed prior to use by vortex.
The transfected DNA mix was prepared in another sterile microfuge tube; Total of 2 μg plasmid DNA mixture which is composed of […] of the target GPCR plasmid and of 2 μg of pIRES plasmid carrying eGFP reporter gene.
The plasmids DNA mixture was then added to the transfection reagent tube and incubated 35 min at RT with gently tapping once every 5 minutes to mix the contents. The DNA-FuGene complex was added drop wise to flask and spread by gentle swirling. […]

[2] = biological target: LGR8 (RXFP2) (Homo sapiens, UniProt Q8WXD0); assay: pCRE-β-gal reporter assay in Forskolin-treated CHO-K1 cells transiently transfected with LGR8; assay type: cell-based; parameters: expressed in transfected cells; host or cells: CHO-K1 (transient); settings: 5 uM Forskolin, FIG. 8A-B
Chain of LGR8 (RXFP2) (Q8WXD0 whole entry): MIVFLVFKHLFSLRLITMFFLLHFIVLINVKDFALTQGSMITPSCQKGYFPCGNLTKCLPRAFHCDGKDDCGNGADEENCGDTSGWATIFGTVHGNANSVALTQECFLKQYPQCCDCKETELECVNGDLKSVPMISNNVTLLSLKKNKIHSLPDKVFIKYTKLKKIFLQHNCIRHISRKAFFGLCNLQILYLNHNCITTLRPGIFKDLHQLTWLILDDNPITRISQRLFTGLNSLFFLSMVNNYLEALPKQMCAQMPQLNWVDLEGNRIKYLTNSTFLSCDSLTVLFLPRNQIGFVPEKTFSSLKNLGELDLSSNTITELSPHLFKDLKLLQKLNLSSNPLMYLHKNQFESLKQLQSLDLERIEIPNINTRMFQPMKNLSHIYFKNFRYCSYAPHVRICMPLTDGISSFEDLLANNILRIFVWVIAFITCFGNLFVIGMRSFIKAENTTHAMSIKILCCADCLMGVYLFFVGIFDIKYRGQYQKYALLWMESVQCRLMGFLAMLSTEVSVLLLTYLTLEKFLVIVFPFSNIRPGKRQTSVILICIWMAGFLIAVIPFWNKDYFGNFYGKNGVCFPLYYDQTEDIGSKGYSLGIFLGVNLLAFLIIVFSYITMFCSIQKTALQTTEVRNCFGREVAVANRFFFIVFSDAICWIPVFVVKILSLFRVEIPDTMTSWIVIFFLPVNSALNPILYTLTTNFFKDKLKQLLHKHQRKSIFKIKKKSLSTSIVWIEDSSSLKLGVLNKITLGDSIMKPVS
Procedure: The ability of P74C13V (P74) (SEQ ID NO: 10) and P59C13V (P59) and P59C13V-Amide (P59-Amide) (SEQ ID NO: 6 and 5 respectively) to activate LGR7 (RXFP1) and LGR8 (RXFP2) was further tested by testing the ability of these peptides to influence cAMP activity induced by 5 μM Forskolin in CHO-K1 cells transiently transfected with LGR7/pCRE-β-gal or LGR8/pCRE-β-gal as compared to H2 relaxin and INSL3 respectively.
LGR8 transfected CHO-K1 cells were treated with 5 uM of Forskolin to stimulate cAMP. The cells were then challenged with increasing doses of INSL3 (as positive control), P74C13V (P74) (SEQ ID NO: 10), P59C13V with (P59-Amide) and without (P59) amide (SEQ ID NO: 5 and 6, respectively) and P59S-Amide (P59-S) (SEQ ID NO: 1). […] The results are presented as a percentage of Forskolin activity at various concentrations of the peptide (logarithmic scale). Each point represents three unrelated repeats for each experiment.

CRE activation pattern relative to Forskolin [2] | Substance | dose response of normalized cell index [1] | affinity to LGR7 compared with other ligands [1] | effect on cell impedance (normalized cell index) [1]
 | AYAAFSV-Amide (AYAAFSV-NH2) [Peptide P59-S-Amide] | moderate dose response for the high concentrations; also recorded: no dose response was demonstrated |  | 
dual activation pattern effect | GQKGQVGPPGAAVRRAYAAFSV [Peptide P59C13V] | moderate dose response for the high concentrations; also recorded: mild dose dependent activation | significantly lower than that of H2 Relaxin or P74C13V | 
slight activation pattern | GQKGQVGPPGAAVRRAYAAFSV-Amide (GQKGQVGPPGAAVRRAYAAFSV-NH2) [P59C13V-Amide] |  |  | 
bell-shaped activation pattern | GQKGQVGPPGAAVRRAYAAFSVGRRAYAAFSV-OH [Peptide P74C13V] | clear dose dependent activation | lower than that of H2 Relaxin | stronger than the effect of H2 Relaxin
 | H2 Relaxin: H2 Relaxin (ACS), positive control, known ligand of LGR7 (RXFP1) [reference compound] | clear dose dependent activation |  | capable of activating a cellular response
